Changes are numbered by the printed parent chain. Oligonucleotides are written 5' to 3', each unit as a sugar letter and its base; * is a phosphorothioate linkage, no mark a phosphodiester; rarer units and linkages stand in square brackets, end groups in braces. Plain capitals give the bases only. d = 2'-deoxy (DNA); r = 2'-OH (RNA)
B1: AMX206.A10: rRdY aptamer clone (nucleic acid)
chain: rGrGrArGdCrGdCrAdCdTdCrArGdCdCrAdCrGrGdCrAdTrGrAdCrGrGdTrGrAdTrGrArAdTdTrArGdCrGdCrGrGdTrGdTdCrGrGdTrGrGdTrGdTdCrAdTdTdTdCrGrAdCdCdTdCdTdCdTrGdCdTrArGdC
B2: AMX206.F9: rRdY aptamer clone (nucleic acid)
chain: rGrGrArGdCrGdCrAdCdTdCrArGdCdCrAdCrGrGrArGdCrGdTdCrGrGdTrGrAdTrGrGrAdTdTrArGdCrGdCrGrGdCdTdCdCrGdTrGrGdTrAdCrAdCrAdTdTdTdCrGrAdCdCdTdCdTdCdTrGdCdTrArGdC
B3: AMX203.A1: rRdY aptamer clone (nucleic acid)
chain: rGrGrArGdCrGdCrAdCdTdCrArGdCdCrAdCrArGdTdTdCdTrGdTdCrGrGdTrGrAdTrGrArAdTdTrArGdCrGdCrGrGrGrArGdCdTrGdTrGrGrGrAdCrGdTdTdTdCrGrAdCdCdTdCdTdCdTrGdCdTrArGdC
B4: AMX205.H9: rRdY aptamer clone (nucleic acid)
chain: rGrGrArGdCrGdCrAdCdTdCrArGdCdCrAdCrGrAdCrGrGdTrGrAdTrGrGrAdTdTrArGdCrGdCrGrGdTrGrGrArGrArArGrAdTrGdCrGdCdTrGdTdTrGdTdTdTdCrGrAdCdCdTdCdTdCdTrGdCdTrArGdC
B5: AMX206.H9: rRdY aptamer clone (nucleic acid)
chain: rGrGrArGdCrGdCrAdCdTdCrArGdCdCrAdCrGrGrArGdCrGdTdCrGrGdTrGrAdTrGrGrAdTdTrArGdCrGdCrGrGdTdTdCdCrGdTrGrGdTrAdCrAdCdCdTdTdTdCrGrAdCdCdTdCdTdCdTrGdCdTrArGdC
B6: AMX206.D7: rRdY aptamer clone (nucleic acid)
chain: rGrGrArGdCrGdCrAdCdTdCrArGdCdCrAdCrGrGdCrAdCrGrAdCrGrGdTrGrAdTrGrArAdTdTrArGdCrGdCrGrGdTrGdTdCrGrGdTrGrGdTrGdTdTrAdTdTdTdCrGrAdCdCdTdCdTdCdTrGdCdTrArGdC
B7: AMX205.H8: rRdY aptamer clone (nucleic acid)
chain: rGrGrArGdCrGdCrAdCdTdCrArGdCdCrAdCrArArAdCrGrGrAdCrGrGdTrGrAdTrGrGrAdTdTrArAdCrGdCrGrGrGdTdTdTrAdTrGrGdCrArArGrGdTdTdTdCrGrAdCdCdTdCdTdCdTrGdCdTrArGdC
B8: AMX203.D6: rRdY aptamer clone (nucleic acid)
chain: rGrGrArGdCrGdCrAdCdTdCrArGdCdCrAdCrArGdTdTdCdTrGdTdCrGrGdTrGrAdTrGrArAdTdTrArGdCrGdCrGrArGrArGdCdTrGdTrGrGrGrAdCrGdTdTdTdCrGrAdCdCdTdCdTdCdTrGdCdTrArGdC
B9: AMX237.G7: DNA SELEX 2 aptamer clone (nucleic acid)
DNA: CTACCTACGATCTGACTAGCTTGGTAGCGACTTTGTGGAGCTGCGGTTTGGTCGACGTCAGCTTACTCTCATGTAGTTCC
modifications: DNA, backbone not given here
notes: DNA SELEX 2 aptamer clone
B10: AMX236.A12: DNA SELEX 2 aptamer clone (nucleic acid)
chain: B9 DNA with T33C
modifications: DNA, backbone not given here
notes: DNA SELEX 2 aptamer clone
B11: AMX206.E7: rRdY aptamer clone (nucleic acid)
chain: rGrGrArGdCrGdCrAdCdTdCrArGdCdCrAdCrGrGrArGdCrGdTdCrGrGdTrGrAdTrGrGrAdTdTrArGdCrGdCrGrGdCdTdCdCrGdTrGrGdTrAdCrAdCdCdTdTdTdCrGrAdCdCdTdCdTdCdTrGdCdTrArGdC
B12: AMX205.F9: rRdY aptamer clone (nucleic acid)
chain: rGrGrArGdCrGdCrAdCdTdCrArGdCdCrAdCrGrGrArGdCrGdTdCrGrGdTrGrAdTrGrGrAdTdTrArGdCrGdCrGrGdCdTdCdCrGdTrGrGdTrAdCrGdCdCdTdTdTdCrGrAdCdCdTdCdTdCdTrGdCdTrArGdC

Legend:
[1] = biological target: T1, human vWF A1 domain (SEQ ID NO 5) (Homo sapiens, UniProt P04275, T1381A); assay: 3-point dot blot screen, human vWF A1 domain; type: binding; details: rRdY aptamers; 100 nM human vWF A1 domain; ratio of fraction bound with target to without
Procedure, shortened: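 Values are ratios of aptamer fraction retained on nitrocellulose with 100 nM vWF A1 domain (human or rabbit) versus a no-protein control. Unique clones from rounds 9 and 12 pools were transcribed, desalted and 5'-32P labeled before this three-point dot blot screen.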

[2] = test system: rabbit vWF A1 domain (SEQ ID NO 6); assay: 3-point dot blot screen, rabbit vWF A1 domain; type: binding; details: for Screen- Rabbit/No Protein: rRdY aptamers, 100 nM rabbit vWF A1 domain, ratio of fraction bound with target to without; for Screen Rabbit/No Protein: 3-point dot blot screen, 20 nM rabbit vWF A1 domain, ratio of fraction of aptamer bound with target protein to fraction bound without protein
Procedure, shortened: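 Rabbit vWF A1 domain binding was screened by dot blot using three conditions: no target protein, human vWF, and rabbit vWF A1 domain at 100 nM (20 nM in the screen run twice). Radiolabeled aptamer bound to nitrocellulose was quantified, and results are expressed as the ratio of bound fraction with protein to bound fraction without protein.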

[3] = test system: full length human vWF binding to lyophilized platelets; assay: Full length human von Willebrand Factor platelet binding assay (FACS); type: cell-based; details: 5 nM full length human vWF, lyophilized platelets, botrocetin; for Inhibition of full length hVWF binding in FACS assay, IC50 range: both bounds in nM; for IC50: read-out: Inhibition of full length hVWF binding in FACS assay, Average IC50
Procedure, shortened: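 Aptamer titrations (0.1–1000 nM) pre-incubated with 5 nM full-length human vWF, then added to lyophilized platelets plus botrocetin for 15 min at 37 °C in PBS/0.5% BSA. Bound vWF detected by anti-vWF then FITC secondary antibody via flow cytometry MFI; % inhibition versus no-aptamer binding fitted for IC50.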

[4] = biological target: T1, human vWF A1 domain (SEQ ID NO 5); assay: dot blot KD determination, human vWF A1 domain; details: read-out: Human A1 KD; rRdY aptamers; 6 point protein titration
full length human vWF = assay: 3-point dot blot screen, full length human vWF; type: binding; details: 20 nM full length human vWF, ratio of fraction of aptamer bound with target protein to fraction bound without protein
Procedure, shortened: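 Unique aptamer clones tested twice by nitrocellulose dot blot with no protein, 20 nM full-length human vWF or 20 nM rabbit vWF A1 domain. Value is fraction of aptamer bound with target divided by fraction bound without protein.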

[5] = test system: rabbit vWF domain A1 binding to lyophilized platelets; assay: Rabbit von Willebrand Factor domain A1 platelet binding assay (FACS); type: cell-based; details: 4 nM rabbit A1 vWF, lyophilized platelets, botrocetin; both bounds in nM; read-out: Inhibition of rabbit VWF A1 domain binding in FACS assay, IC50 range
Method: Botrocetin induces the binding of the A1 domain of vWF to platelets, as well as the full length protein. It was determined by the inventors that 6-Histidine-tagged rabbit A1 domain vWF purified protein could be induced to bind to human lyophilized platelets with botrocetin. Rabbit A1 binding to platelets is measured with an anti-poly-His antibody followed by incubation with a phycoerythrin conjugated secondary antibody. The degree of binding can be quantified by flow cytometric analysis. The ability of aptamers to block the binding of rabbit A1 to human fixed platelets was correlated with decreased fluorescence signal.
The ability of aptamers of the invention to block rabbit vWF domain A1 binding to lyophilized platelets was also assessed by flow cytometric analysis. Titrations of aptamers (zero, 0.1 nM to 1000 nM) were preincubated briefly with 4 nM of rabbit A1 vWF in FACS buffer (PBS plus 0.5% bovine serum albumin) at room temperature in a volume of 50 uL. Another 50 uL containing 5 uL of lyophilized platelets plus 1 uL of 0.1 U/uL of botrocetin in FACS buffer was added to aptamer/vWF. This reaction was allowed to proceed for 15 minutes at 37 degrees C. after which 200 uL of FACS buffer was added. Platelets were collected by a 6 minute spin at 1470 RCF and the supernatant was discarded. The pellets were resuspended in 100 uL of FACS buffer containing a 1:200 dilution of anti-Penta-HIS-biotin conjugate antibody and were incubated at room temperature for 30 minutes. After the dilution with 200 uL of FACS buffer, the platelets were spun at 1470 RCF for 6 minutes, and the supernatant was discarded. The pellets were resuspended in a 1:100 solution of anti-IgG-PE antibody and were incubated in the dark for 30 minutes at room temperature. The entire 100 uL was diluted into 200 uL of FACS buffer and analyzed immediately by flow cytometric analysis in the FACSCAN. Contaminating debris was eliminated from the analysis by drawing a gate around the population of single and aggregated platelets and collecting data from 10000 events. Median fluorescent intensity (“MedFI”) readings (which are generally equivalent to the MFI readings, described in Example 3a above, for comparative purposes) were quantified for each sample analyzed by flow cytometry. Background MedFI was subtracted from all data points. Percent inhibition was reported by calculating the percent value of binding of […] to platelets in the presence of aptamer at a given concentration relative to binding in the absence of any aptamer (see FIG. 7). IC50 values were determined by fitting the percent inhibition of vWF binding to platelets as a function of aptamer concentration to the equation: % inhibition=% inhibitionmax/(1+IC50/aptamer conc.)

T1 sequence (P04275 with tags, fused parts or gaps T1381A): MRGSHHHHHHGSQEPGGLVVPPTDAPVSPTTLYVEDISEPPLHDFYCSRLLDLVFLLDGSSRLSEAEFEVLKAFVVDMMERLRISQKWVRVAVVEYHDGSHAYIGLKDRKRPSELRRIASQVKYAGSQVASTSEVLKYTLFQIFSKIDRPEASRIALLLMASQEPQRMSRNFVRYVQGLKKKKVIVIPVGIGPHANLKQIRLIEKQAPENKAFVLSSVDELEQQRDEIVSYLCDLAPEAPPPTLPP
Sequence of rabbit vWF A1 domain (SEQ ID NO 6) (as listed by the source): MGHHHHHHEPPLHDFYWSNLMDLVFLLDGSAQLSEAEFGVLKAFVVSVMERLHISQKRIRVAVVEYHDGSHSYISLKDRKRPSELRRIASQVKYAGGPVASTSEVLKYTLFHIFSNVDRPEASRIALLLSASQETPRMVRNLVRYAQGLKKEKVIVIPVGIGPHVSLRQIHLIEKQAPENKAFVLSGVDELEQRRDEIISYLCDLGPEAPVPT
Sequence of rabbit vWF domain A1 binding to lyophilized platelets (as listed by the source): as above

Molecule | Screen- Human/No Protein [1] | Screen- Rabbit/No Protein [2] | Inhibition of full length hVWF binding in FACS assay, IC50 range [3] | Kd [4] | Screen Rabbit/No Protein [2] | Screen- Human/No Protein (full length human vWF) | IC50 [3] | IC50 [5]
B1 | 2.62 | 2.58 | no activity | 111 nM | – | – | – | –
B2 | 2.98 | 3.00 | no activity | 139 nM | – | – | – | –
B3 | 2.99 | 2.67 | no activity | 1150 nM | – | – | – | –
B4 | 2.36 | 3.14 | no activity | 178 nM | – | – | – | –
B5 | 1.98 | 2.31 | no activity | 109 nM | – | – | – | –
B6 | 2.19 | 2.08 | no activity | 187 nM | – | – | – | –
B7 | 2.04 | 2.84 | no activity | 788 nM | – | – | – | –
B8 | 1.92 | 1.57 | no activity | 523 nM | – | – | – | –
B9 | – | – | – | – | 2.54 | 2.68 | 6.5 nM | 12.3 nM
B10 | – | – | – | – | 2.41 | 2.64 | 10.7 nM | 14.5 nM
B11 | 2.11 | 2.26 | no activity | 151 nM | – | – | – | –
B12 | 2.22 | 2.47 | no activity | 145 nM | – | – | – | –
